Experiments:
[1] = biological target: GhV F I268F/Q287P ectodomain (Ghanaian virus); experiment: negative-stain EM
[2] = biological target: GhV F I268F/Q287P/S196C/A215C ectodomain (Ghanaian virus); experiment: negative-stain EM

| Substance | stoichiometry N [1] | stoichiometry N [2] |
| --- | --- | --- |
| GhV F I268F/Q287P ectodomain (domain or fragment) | 3 |  |
| GhV F I268F/Q287P/S196C/A215C ectodomain (domain or fragment) |  | 3 |

Reference: publication PMC11032465
